These results are taken from patent publication US20240335558A1, “ISOLATED POLYPEPTIDE AND USE THEREOF” (GLYCO-THERAPY BIOTECHNOLOGY CO., LTD., priority 2021, published 2024).

What all share (format): biochemical
For data set [1], the system named is Trastuzumab-(GalNAzβ1,4)GlcNAc. Put plainly: HpFT-2HR and HpFT-4HR transferring GDP-FAmP4Biotin or GDP-FAzP4Biotin to Trastuzumab-(GalNAzβ1,4)GlcNAc. The note with it: donor 1 mM, enzyme 0.5 mg/mL, 6 h; FIG. 6(B). The method, then: To 40 mM Tris-HCl (pH 7.5) buffer were added Trastuzumab-(Fucα1,6)(Galβ1,4)GlcNAc (2 mg/mL final), GDP-FAmP4Biotin (1 mM final), MgCl2 (20 mM final), and different HpFT enzymes (HpFT-4HR, HpFT-4HR(M4), HpFT-4HR(M7), HpFT-6HR, HpFT-3HR, HpFT-2HR, HpFT-1HR or HpFT-0HR) (0.5 mg/mL final) in sequence, and the resulting mixed solution was allowed to react at 30° C. for 1 h. Three parallels were set up for each group. After the reaction time point was reached, to the reaction solution was added 10 mM LacNA, and the reaction was terminated by a desalting column (Zeba™ Spin Desalting Columns/2 ml/40K, Thermo Fisher Scientific), and finally mass spectrometry was carried out and % of conversion was calculated. % of conversion=(MAR0 peak intensity*0+MAR1peak intensity*1+MAR2 peak intensity*2)/2* (MAR0 peak intensity+MAR1 peak intensity+MAR2 peak intensity)*100%.
(§1) To 40 mM Tris-HCl (pH 7.5) buffer were added Trastuzumab-(GalNAzβ1,4)GlcNAc (2 mg/mL final), GDP-FAmP4Biotin or GDP-FAzP4Biotin (1 mM final), MgCl2 (20 mM final), and HpFT-2HR or HpFT-4HR (0.5 mg/mL final) in sequence, and the resulting mixed solution was allowed to react at 30 t for 6 h. Three parallels were set up for each group. After the reaction time point was reached, to the reaction solution was added 10 mM LacNAc, and the reaction was terminated by a desalting column (Zeba™ Spin Desalting Columns/2 ml/40K, Thermo Fisher Scientific), and finally mass spectrometry was carried out and % of conversion was calculated. % of conversion was calculated according to Example 18.

For data set [2], the system named is Trastuzumab-(GalNAzβ1,4)GlcNAc. Put plainly: HpFT-4HR and HFT6 transferring GDP-FAmP4Biotin to Trastuzumab-(GalNAzβ1,4)GlcNAc. The note with it: donor GDP-FAmP4Biotin 1 mM, enzyme 0.5 mg/mL, 30° C., 6 h; FIG. 5B.
Experimental: Three parallels were set up for each group. After the reaction time point was reached, to the reaction solution was added 10 mM LacNAc, and the reaction was terminated by a desalting column (Zeba™ Spin Desalting Columns/2 ml/40K, Thermo Fisher Scientific), and finally mass spectrometry was carried out and % of conversion was calculated. […] For Trastuzumab-(GalNAzβ1,4)GlcNAc, % of conversion was calculated according to Example 18.
Data set [3] deals with Trastuzumab-G2F. Description: HpFT-4HR and HFT6 transferring GDP-FAmP4Biotin to Trastuzumab-G2F. The note with it: donor GDP-FAmP4Biotin 1 mM, enzyme 0.5 mg/mL, 30° C., 6 h; FIG. 5A.
In data set [4] the test system is Trastuzumab-G2F. Description: HpFT-2HR and HpFT-4HR transferring GDP-FAmP4Biotin or GDP-FAzP4Biotin to Trastuzumab-G2F. The note with it: donor 1 mM, enzyme 0.5 mg/mL, 30° C., 6 h; FIG. 6(A). As for the experimental part: To 40 mM Tris-HCl (pH 7.5) buffer were added Trastuzumab-G2F (2 mg/mL final), GDP-FAmP4Biotin (1 mM final), MgCl2 (20 mM final), and different HpFT enzymes (HpFT-4HR, HpFT-4HR(M4), HpFT-4HR(M7), HpFT-6HR, HpFT-3HR, HpFT-2HR, HpFT-1HR, or HpFT-0HR) (0.5 mg/mL final) in sequence, and the resulting mixed solution was allowed to react at 30° C. for 3 h. Three parallels were set up for each group. After the reaction time point was reached, to the reaction solution was added 10 mM LacNAc (N-acetyl-D-lactosamine), and the reaction was terminated by a desalting column (Zeba™ Spin Desalting Columns/2 ml/40K, Thermo Fisher Scientific), and finally mass spectrometry was carried out and % of conversion was calculated. % of conversion=(MAR0 peak intensity*0+MAR1peak intensity*1+MAR2 peak intensity*2+MAR3 peak intensity*3+MAR4 peak intensity*4)/4* (MAR0 peak intensity+MAR1 peak intensity+MAR2 peak intensity+MAR3 peak intensity+MAR4 peak intensity)*100%.
as §1, with “Trastuzumab-G2F” for “Trastuzumab-(GalNAzβ1,4)GlcNAc”, “30° C.” for “30 t”, “17.” for “18.”

B1: HpFT-4HR: reported α-1,3 fucosyltransferase (Wu P. et al.): catalytically active domain, four heptapeptide repeat sequences, C-terminus His tag (protein)
chain: MFQPLLDAFIESASIEKMVSKSPPPPLKIAVANWWGDEEIKEFKKSVLYFILSQRYAITLHQNPNESSDLVFSNPLGAARKILSYQNTKRVFYTGENESPNFNLFDYAIGFDELDFNDRYLRMPLYYAHLHYEAELVNDTTAPYKLKDNSLYALKKPSHHFKENHPNLCAVVNDESDLLKRGFASFVASNANAPMRNAFYDALNSIEPVTGGGSVRNTLGYKVGNKSEFLSQYKFNLCFENSQGYGYVTEKILDAYFSHTIPIYWGSPSVAKDFNPKSFVNVHDFNNFDEAIDYIKYLHTHPNAYLDMLYENPLNTLDGKAYFYQDLSFKKILDFFKTILENDTIYHNNPFIFYRDLHEPLISIDDLRVNYDDLRVNYDDLRVNYDDLRVNYLEHHHHHH
modifications: Catalytically active domain of Helicobacter pylori Alpha-(1,3)-fucosyltransferase (GenBank No.AAD07710.1) with 4 heptapeptide repeats and a C-terminal His tag
With B1, the “activity in catalyzing the transfer of GDP-FAmP4Biotin relative to transfer of GDP-FAzP4Biotin” value (in data set [1]; in the data set with Trastuzumab-G2F [4]) was “significantly higher” each time. Further, the “catalytic activity (% of conversion), HpFT-4HR versus HFT6” value (in data set [2]; in the data set on Trastuzumab-G2F [3]) was “much higher than that of human-derived fucosyltransferase HFT6” throughout.
